Several values for one entry are separate records, joined by “and”; a condition that tells them apart may be missing. Equal values may be shown once. Read-outs that look alike come from different tables or passages of the source.
Columns and labels:
[1] = target: whole Zika virus (ZIKV) virion (Zika virus); assay: cell-based or functional assay
[2] = target: whole Zika virus (ZIKV) virion (Zika virus); assay: whole ZIKV virion ELISA; molar EC50 of IgM compared with IgG
[3] = target: whole Zika virus (ZIKV) virion (Zika virus); assay: whole ZIKV virion ELISA, 5-fold dilutions from 100 ug/ml
[4] = target: Dengue virus serotype 4 virion (Dengue virus serotype 4); assay: cell-based or functional assay
[5] = target: Dengue virus serotype 3 virion (Dengue virus serotype 3); assay: cell-based or functional assay
[6] = target: Dengue virus serotype 2 virion (Dengue virus serotype 2); assay: cell-based or functional assay
[7] = target: Dengue virus serotype 1 virion (Dengue virus serotype 1); assay: cell-based or functional assay
[8] = target: whole Zika virus (ZIKV) virion (Zika virus); assay: cell-based or functional assay; remark: listed apart in the source
[9] = target: whole Zika virus (ZIKV) virion (Zika virus); assay: whole ZIKV virion ELISA; molar conversion with IgM ~970 KDa
[10] = target: whole Zika virus (ZIKV) virion (Zika virus); assay: whole ZIKV virion ELISA; molar conversion with IgG ~150 KDa

Binder	FRNT50 [1]	fold difference in neutralizing activity, IgM versus IgG at equal numbers of molecules [1]	fold difference of molar EC50 against DH1017.IgG [2]	EC50 [3]	FRNT50 [4]	FRNT50 [5]	FRNT50 [6]	FRNT50 [7]	FRNT50 [8]	EC50 [9]	EC50 [10]
DH1017.IgM (antibody, V domains shown) VH: QVQLQESGPGLVKPSQTLSLTCAVSGGSISSGDSYWSWIRQHPGKGLEWIGSIYYSGSTYYNPSLKSRVTIPIDTSKNQFSLKLSSVTAADTAVYYCARHVGDLRVNDAFDIWGQGTMVTVSS VL: QSVLTQPPSVSAAPGQKVTISCSGSSSNIGNNFVSWYQRLPGTPPKLLIYDSDKRPSGIPDRFSGSKSGTSATLGITGLQTGDEGDYYCGTWDRSLSVVVFGGGTKLTVL	24.7 ng/ml and 25.5 pM	40 fold	6 fold	0.046 µg/mL	> 5 µg/mL	> 5 µg/mL	> 5 µg/mL	> 5 µg/mL	6.57 ng/mL	0.474 nM	–
DH1017.IgG (antibody, V domains shown) VH: QVQLQESGPGLVKPSQTLSLTCAVSGGSISSGDSYWSWIRQHPGKGLEWIGSIYYSGSTYYNPSLKSRVTIPIDTSKNQFSLKLSSVTAADTAVYYCARHVGDLRVNDAFDIWGQGTMVTVSS VL: QSVLTQPPSVSAAPGQKVTISCSGSSSNIGNNFVSWYQRLPGTPPKLLIYDSDKRPSGIPDRFSGSKSGTSATLGITGLQTGDEGDYYCGTWDRSLSVVVFGGGTKLTVL	–	–	–	0.045 µg/mL	–	–	–	–	–	–	3 nM

From patent publication US12570725
